The subject of data set [1] is T1, In-active peptide (NH2-Cys-Lys-Pro-Val-Lys-TAMRA, SEC ID NO: 3).
T1 sequence: CKPVK

For data set [2], the system named is T2, Pro-active peptide (NH2-Cys-Lys-Arg-Val-Lys-TAMRA, SEQ ID NO: 2).
T2 sequence: CKRVK

For Trypsin (13.000-20.000 units/mg), the “fluorescence emission spectra of the one-colour QD540@SiO2 system after incubation with trypsin” value in data set [1] is “the control sample with the “in-active” QD540@SiO2 system, as expected, did not show any significant change in the fluorescence emission”. Besides, in data set [2], the “fluorescence emission of QD660@SiO2@QD540@SiO2 nanoparticles at 25 µg/L versus 350 µg/L trypsin” value is “Increasing the enzyme concentration led to faster recovery of the original emission at 540 nm”; the “fluorescence emission spectra of the one-colour QD540@SiO2 system after incubation with trypsin (loss of FRET on peptide cleavage)” value was “The spectroscopic profiles further demonstrated the existence of FRET processes between the QD540@SiO2 nanospheres and the “pro-active” TAMRA-labelled peptide”; the “ratio of PL emission peaks I540/I660 during enzymatic digestion for 120 minutes at 25-350 µg/L trypsin” value is “There was a direct relationship between the enzymatic digestion rate and the enzyme concentration”.

These data come from US20160139137.
